Molecular target: T1, human β-globin polypeptide (product of the human β-globin transgene) (human, UniProt P68871 2-147)
T1 construct: Two copies stand in each hemoglobin tetramer (α2β2); also called hβ
Experiment: nondenaturing isoelectric focusing of transgenic mouse hemolysate; band excised and its chains identified on a denaturing cellulose acetate strip
From the text: Human α and β-globin mRNA detected in lung is the result of incomplete perfusion. Mouse α and β-globin mRNA are also observed in this non-erythroid tissue. (B) Nondenaturing, isoelectric focusing of transgenic mouse hemolysates. Hemolysates of control mouse (lane 1) human (lane 4) and transgenic mouse (lanes 2 and 3) blood were run on a native agarose isoelectric focusing gel and photographed without staining. (C) Denaturing cellulose acetate strip electrophoresis of transgenic mouse hemogobins. Hemoglobins were denatured in alkaline-urea buffer, electrophoresed on cellulose acetate strips, and stained with imido black.
To determine whether complete human hemoglobins were formed, we separated hemolysates of the blood of animals from two different transgenic lines by non-denaturing ioslectric focusing (IEF) (FIG. 14B). The first lane is a mouse control and the last lane is a normal human sample. The predominant band in each of the controls is the major adult hemoglobin, mouse α_2β_2 or human α_2β_2, respectively.

T1 sequence (P68871 2-147 limits assumed): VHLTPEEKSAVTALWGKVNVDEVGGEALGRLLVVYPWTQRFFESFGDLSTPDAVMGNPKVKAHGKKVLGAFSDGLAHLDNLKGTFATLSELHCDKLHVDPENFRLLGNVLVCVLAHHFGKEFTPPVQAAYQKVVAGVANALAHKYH

Row | Binder | binding result
1 | human α-globin polypeptide (product of the human α1-globin transgene) (other, Two copies stand in each hemoglobin tetramer (α2β2); also called hα) not shown | binds
2 | mouse α-globin polypeptide (endogenous) (other, Endogenous chain in the red blood cells of the transgenic mice; also called mα) not shown | binds
